Consider 4 molecules from US11098105 (Zymeworks, dated 2021).

The target in one experiment is T1, FcγRIIIaF (UniProt P08637 17-208).
T1 construct: also called 3aF; 3af
Description: SPR, antibody captured by goat anti-IgG, FcγR injected.

The next experiment deals with T2, FcγRIIb (UniProt P31994 46-217).
T2 construct: also called 2b; CD32b
T2 sequence (looked up): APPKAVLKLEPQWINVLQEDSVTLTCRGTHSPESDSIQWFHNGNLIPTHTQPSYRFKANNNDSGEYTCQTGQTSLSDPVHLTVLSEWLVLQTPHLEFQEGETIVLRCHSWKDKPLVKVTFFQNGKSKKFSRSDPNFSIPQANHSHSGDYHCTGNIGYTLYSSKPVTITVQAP
The experiment is described as above.

A further experiment deals with T3, FcγRIIaH (UniProt P12318 36-218).
T3 construct: also called 2aH; 2ah
T3 sequence (looked up): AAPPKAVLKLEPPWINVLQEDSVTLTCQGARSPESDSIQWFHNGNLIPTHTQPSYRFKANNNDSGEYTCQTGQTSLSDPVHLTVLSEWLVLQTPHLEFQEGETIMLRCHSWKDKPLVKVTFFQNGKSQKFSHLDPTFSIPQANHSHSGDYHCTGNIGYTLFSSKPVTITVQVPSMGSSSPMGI
The description is as above.

Another experiment deals with T4, FcγRIIaR (UniProt P12318 36-218).
T4 construct: also called 2aR; 2ar
T4 sequence (looked up): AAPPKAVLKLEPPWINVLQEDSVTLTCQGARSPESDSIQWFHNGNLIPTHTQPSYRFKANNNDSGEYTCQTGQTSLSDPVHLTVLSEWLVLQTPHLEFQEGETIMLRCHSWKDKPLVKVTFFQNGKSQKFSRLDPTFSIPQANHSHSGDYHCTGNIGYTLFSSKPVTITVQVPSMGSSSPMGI
Described as above.

A further experiment has as its target Human C1q (human, UniProt P02745 23-245; P02746 28-253; P02747 29-245). Description: cell-based or functional assay.
Experiment [1] concerns the target CD16a(158V/V) on NK92 effector cells (UniProt P08637 17-254, limits assumed). Description: cell-based or functional assay.

Sequence of Human C1q (P02745 23-245 limits assumed, chain 1 of 3): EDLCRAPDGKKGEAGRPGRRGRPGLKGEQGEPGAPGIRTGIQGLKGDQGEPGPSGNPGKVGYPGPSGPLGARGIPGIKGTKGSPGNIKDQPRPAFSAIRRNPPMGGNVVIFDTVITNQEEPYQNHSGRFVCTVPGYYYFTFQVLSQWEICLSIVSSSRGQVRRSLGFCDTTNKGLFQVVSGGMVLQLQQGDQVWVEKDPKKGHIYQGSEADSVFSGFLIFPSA
Sequence of Human C1q (P02746 28-253 limits assumed, chain 2 of 3): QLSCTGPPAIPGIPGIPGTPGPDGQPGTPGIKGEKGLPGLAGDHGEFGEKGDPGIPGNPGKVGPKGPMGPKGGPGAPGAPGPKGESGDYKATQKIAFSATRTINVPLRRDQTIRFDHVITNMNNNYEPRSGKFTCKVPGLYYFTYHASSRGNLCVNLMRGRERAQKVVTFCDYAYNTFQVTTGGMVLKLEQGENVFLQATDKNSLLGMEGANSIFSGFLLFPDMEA
Sequence of Human C1q (P02747 29-245 limits assumed, chain 3 of 3): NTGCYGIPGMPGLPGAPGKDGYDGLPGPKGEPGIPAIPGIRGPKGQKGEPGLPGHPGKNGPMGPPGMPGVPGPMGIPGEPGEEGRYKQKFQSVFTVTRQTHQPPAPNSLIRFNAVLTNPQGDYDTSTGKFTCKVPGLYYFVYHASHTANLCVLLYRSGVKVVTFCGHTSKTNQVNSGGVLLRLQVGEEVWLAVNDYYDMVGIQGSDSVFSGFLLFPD

B1: AAC10, rituximab-based asymmetric antibody construct (antibody, human IgG1, kappa)
heavy 1: QVQLQQPGAELVKPGASVKMSCKASGYTFTSYNMHWVKQTPGRGLEWIGAIYPGNGDTSYNQKFKGKATLTADKSSSTAYMQLSSLTSEDSAVYYCARSTYYGGDWYFNVWGAGTTVTVSAASTKGPSVFPLAPSSKSTSGGTAALGCLVKDYFPEPVTVSWNSGALTSGVHTFPAVLQSSGLYSLSSVVTVPSSSLGTQTYICNVNHKPSNTKVDKKVEPKSCDKTHTCPPCPAPEDEGGPSVFLFPPKPKDTLMISRTPEVTCVVVSVSHEDPEVKFNWYVDGVEVHNAKTKPREEQYNSTYRVVSVLTVLHQDWLNGKEYKCKVSNKALPAPIEKTISKAKGQPREPQVYVYPPSRDELTKNQVSLTCLVKGFYPSDIAVEWESNGQPENNYKTTPPVLDSDGSFALVSKLTVDKSRWQQGNVFSCSVMHEALHNHYTQKSLSLSPGK
heavy 2: QVQLQQPGAELVKPGASVKMSCKASGYTFTSYNMHWVKQTPGRGLEWIGAIYPGNGDTSYNQKFKGKATLTADKSSSTAYMQLSSLTSEDSAVYYCARSTYYGGDWYFNVWGAGTTVTVSAASTKGPSVFPLAPSSKSTSGGTAALGCLVKDYFPEPVTVSWNSGALTSGVHTFPAVLQSSGLYSLSSVVTVPSSSLGTQTYICNVNHKPSNTKVDKKVEPKSCDKTHTCPPCPAPKRRGGPSVFLFPPKPKDTLMISRTPEVTCVVVSVSHEDPEVKFNWYVDGVEVHNAKTKPREEQYNSTYRVVSVLTVLHQDWLNGKEYKCKVSNKALPAPIEKTISKAKGQPREPQVYVLPPSRDELTKNQVSLLCLVKGFYPSDIAVEWESNGQPENNYLTWPPVLDSDGSFFLYSKLTVDKSRWQQGNVFSCSVMHEALHNHYTQKSLSLSPGK
light: QIVLSQSPAILSASPGEKVTMTCRASSSVSYIHWFQQKPGSSPKPWIYATSNLASGVPVRFSGSGSGTSYSLTISRVEAEDAATYYCQQWTSNPPTFGGGTKLEIKRTVAAPSVFIFPPSDEQLKSGTASVVCLLNNFYPREAKVQWKVDNALQSGNSQESVTEQDSKDSTYSLSSTLTLSKADYEKHKVYACEVTHQGLSSPVTKSFNRGEC
For B1, the binding result with FcγRIIIaF, with FcγRIIb, with FcγRIIaH and with FcγRIIaR was “no binding” throughout. In the experiment with Human C1q, the “CDC EC50 [nM], Daudi cells, 10% normal human serum” value (“CDC EC50 … 10% normal human serum” for short) turned out to be 82.8 nM. Also, in the experiment with Human C1q, the “CDC Maximum Lysis, Daudi cells, 10% normal human serum” value came out at 79 % cell lysis. The “ADCC EC50 [nM], Daudi cells, NK92/CD16a(158V/V) effector cells” value in experiment [1] worked out at 7.4 nM. Besides, the “ADCC Maximum Lysis, Daudi cells, NK92/CD16a(158V/V) effector cells” value in experiment [1] was found to be 45 % cell lysis.

B2: AAC15, rituximab-based asymmetric antibody construct (antibody, human IgG1, kappa)
heavy 1: QVQLQQPGAELVKPGASVKMSCKASGYTFTSYNMHWVKQTPGRGLEWIGAIYPGNGDTSYNQKFKGKATLTADKSSSTAYMQLSSLTSEDSAVYYCARSTYYGGDWYFNVWGAGTTVTVSAASTKGPSVFPLAPSSKSTSGGTAALGCLVKDYFPEPVTVSWNSGALTSGVHTFPAVLQSSGLYSLSSVVTVPSSSLGTQTYICNVNHKPSNTKVDKKVEPKSCDKTHTCPPCPAPEDEGGPSVFLFPPKPKDTLMISRTPEVTCVVVSVSHKDPEVKFNWYVDGVEVHNAKTKPREEQYNSTYRVVSVLTVLHQDWLNGKEYKCEVSNKALPAPIKKTISKAKGQPREPQVYVYPPSRDELTKNQVSLTCLVKGFYPSDIAVEWESNGQPENNYKTTPPVLDSDGSFALVSKLTVDKSRWQQGNVFSCSVMHEALHNHYTQKSLSLSPGK
heavy 2: QVQLQQPGAELVKPGASVKMSCKASGYTFTSYNMHWVKQTPGRGLEWIGAIYPGNGDTSYNQKFKGKATLTADKSSSTAYMQLSSLTSEDSAVYYCARSTYYGGDWYFNVWGAGTTVTVSAASTKGPSVFPLAPSSKSTSGGTAALGCLVKDYFPEPVTVSWNSGALTSGVHTFPAVLQSSGLYSLSSVVTVPSSSLGTQTYICNVNHKPSNTKVDKKVEPKSCDKTHTCPPCPAPKRRGGPSVFLFPPKPKDTLMISRTPEVTCVVVSVSHKDPEVKFNWYVDGVEVHNAKTKPREEQYNSTYRVVSVLTVLHQDWLNGKEYKCEVSNKALPAPIKKTISKAKGQPREPQVYVLPPSRDELTKNQVSLLCLVKGFYPSDIAVEWESNGQPENNYLTWPPVLDSDGSFFLYSKLTVDKSRWQQGNVFSCSVMHEALHNHYTQKSLSLSPGK
light: QIVLSQSPAILSASPGEKVTMTCRASSSVSYIHWFQQKPGSSPKPWIYATSNLASGVPVRFSGSGSGTSYSLTISRVEAEDAATYYCQQWTSNPPTFGGGTKLEIKRTVAAPSVFIFPPSDEQLKSGTASVVCLLNNFYPREAKVQWKVDNALQSGNSQESVTEQDSKDSTYSLSSTLTLSKADYEKHKVYACEVTHQGLSSPVTKSFNRGEC
Turning to B2, the binding result in the experiment with FcγRIIIaF, in the experiment with FcγRIIb, in the experiment with FcγRIIaH and with FcγRIIaR was “no binding” in each case. Also, the “CDC EC50 … 10% normal human serum” value with Human C1q was about 55.9 nM. Moreover, the “CDC Maximum Lysis, Daudi cells, 10% normal human serum” value in the experiment with Human C1q came out at 43 % cell lysis.

B3: AAC14, rituximab-based asymmetric antibody construct (antibody, human IgG1, kappa)
heavy 1: QVQLQQPGAELVKPGASVKMSCKASGYTFTSYNMHWVKQTPGRGLEWIGAIYPGNGDTSYNQKFKGKATLTADKSSSTAYMQLSSLTSEDSAVYYCARSTYYGGDWYFNVWGAGTTVTVSAASTKGPSVFPLAPSSKSTSGGTAALGCLVKDYFPEPVTVSWNSGALTSGVHTFPAVLQSSGLYSLSSVVTVPSSSLGTQTYICNVNHKPSNTKVDKKVEPKSCDKTHTCPPCPAPEDEGGPSVFLFPPKPKDTLMISRTPEVTCVVVSVSHKDPEVKFNWYVDGVEVHNAKTKPREEQYNSTYRVVSVLTVLHQDWLNGKEYKCAVSNKALPAPIEKTISKAKGQPREPQVYVYPPSRDELTKNQVSLTCLVKGFYPSDIAVEWESNGQPENNYKTTPPVLDSDGSFALVSKLTVDKSRWQQGNVFSCSVMHEALHNHYTQKSLSLSPGK
heavy 2: QVQLQQPGAELVKPGASVKMSCKASGYTFTSYNMHWVKQTPGRGLEWIGAIYPGNGDTSYNQKFKGKATLTADKSSSTAYMQLSSLTSEDSAVYYCARSTYYGGDWYFNVWGAGTTVTVSAASTKGPSVFPLAPSSKSTSGGTAALGCLVKDYFPEPVTVSWNSGALTSGVHTFPAVLQSSGLYSLSSVVTVPSSSLGTQTYICNVNHKPSNTKVDKKVEPKSCDKTHTCPPCPAPKRRGGPSVFLFPPKPKDTLMISRTPEVTCVVVSVSHKDPEVKFNWYVDGVEVHNAKTKPREEQYNSTYRVVSVLTVLHQDWLNGKEYKCAVSNKALPAPIEKTISKAKGQPREPQVYVLPPSRDELTKNQVSLLCLVKGFYPSDIAVEWESNGQPENNYLTWPPVLDSDGSFFLYSKLTVDKSRWQQGNVFSCSVMHEALHNHYTQKSLSLSPGK
light: QIVLSQSPAILSASPGEKVTMTCRASSSVSYIHWFQQKPGSSPKPWIYATSNLASGVPVRFSGSGSGTSYSLTISRVEAEDAATYYCQQWTSNPPTFGGGTKLEIKRTVAAPSVFIFPPSDEQLKSGTASVVCLLNNFYPREAKVQWKVDNALQSGNSQESVTEQDSKDSTYSLSSTLTLSKADYEKHKVYACEVTHQGLSSPVTKSFNRGEC
As for B3, the binding result with FcγRIIIaF, with FcγRIIb, in the experiment with FcγRIIaH and with FcγRIIaR was “no binding” in each case. The “CDC EC50 … 10% normal human serum” value with Human C1q was found to be 69.7 nM. In addition, the “CDC Maximum Lysis, Daudi cells, 10% normal human serum” value in the experiment with Human C1q came to 72 % cell lysis.

B4: AAC13, rituximab-based asymmetric antibody construct (antibody, human IgG1, kappa)
heavy 1: QVQLQQPGAELVKPGASVKMSCKASGYTFTSYNMHWVKQTPGRGLEWIGAIYPGNGDTSYNQKFKGKATLTADKSSSTAYMQLSSLTSEDSAVYYCARSTYYGGDWYFNVWGAGTTVTVSAASTKGPSVFPLAPSSKSTSGGTAALGCLVKDYFPEPVTVSWNSGALTSGVHTFPAVLQSSGLYSLSSVVTVPSSSLGTQTYICNVNHKPSNTKVDKKVEPKSCDKTHTCPPCPAPEDEGGPSVFLFPPKPKDTLMISRTPEVTCVVVDVSHEDPEVKFNWYVDGVEVHNAKTKPREEQYNSTYRVVSVLTVLHQDWLNGKEYKCKVSNKALWAPIEKTISKAKGQPREPQVYVYPPSRDELTKNQVSLTCLVKGFYPSDIAVEWESNGQPENNYKTTPPVLDSDGSFALVSKLTVDKSRWQQGNVFSCSVMHEALHNHYTQKSLSLSPGK
heavy 2: QVQLQQPGAELVKPGASVKMSCKASGYTFTSYNMHWVKQTPGRGLEWIGAIYPGNGDTSYNQKFKGKATLTADKSSSTAYMQLSSLTSEDSAVYYCARSTYYGGDWYFNVWGAGTTVTVSAASTKGPSVFPLAPSSKSTSGGTAALGCLVKDYFPEPVTVSWNSGALTSGVHTFPAVLQSSGLYSLSSVVTVPSSSLGTQTYICNVNHKPSNTKVDKKVEPKSCDKTHTCPPCPAPKRRGGPSVFLFPPKPKDTLMISRTPEVTCVVVDVSHEDPEVKFNWYVDGVEVHNAKTKPREEQYNSTYRVVSVLTVLHQDWLNGKEYKCKVSNKALWAPIEKTISKAKGQPREPQVYVLPPSRDELTKNQVSLLCLVKGFYPSDIAVEWESNGQPENNYLTWPPVLDSDGSFFLYSKLTVDKSRWQQGNVFSCSVMHEALHNHYTQKSLSLSPGK
light: QIVLSQSPAILSASPGEKVTMTCRASSSVSYIHWFQQKPGSSPKPWIYATSNLASGVPVRFSGSGSGTSYSLTISRVEAEDAATYYCQQWTSNPPTFGGGTKLEIKRTVAAPSVFIFPPSDEQLKSGTASVVCLLNNFYPREAKVQWKVDNALQSGNSQESVTEQDSKDSTYSLSSTLTLSKADYEKHKVYACEVTHQGLSSPVTKSFNRGEC
On to B4, for which the binding result in the experiment with FcγRIIIaF, in the experiment with FcγRIIb, with FcγRIIaH and in the experiment with FcγRIIaR was “no binding” throughout.
